Data reported in patent US20250059282A1 (University of Texas, published 2025).

Legend:
Human PD-L2-HIS [1] = target: T1, Human PD-L2-HIS (human, UniProt Q9BQ51 20-220); assay: ForteBio Octet, IgG, monovalent
T1 construct: also called His-tagged human PD-L2; not shown: His tag
T1 sequence: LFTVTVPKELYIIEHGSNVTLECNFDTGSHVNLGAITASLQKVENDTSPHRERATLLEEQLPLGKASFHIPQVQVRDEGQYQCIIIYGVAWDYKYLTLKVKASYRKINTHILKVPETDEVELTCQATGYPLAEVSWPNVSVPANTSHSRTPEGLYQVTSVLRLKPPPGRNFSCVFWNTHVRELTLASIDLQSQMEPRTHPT

Human PD-L1-HIS [2] = target: T2, Human PD-L1-HIS (human, UniProt Q9NZQ7 19-238); assay: ForteBio, IgG, monovalent
T2 construct: also called HIS-tagged monovalent PD-L1; His-tagged human PD-L1; not shown: His tag

Human PD-L2-HIS [3] = target: T1, Human PD-L2-HIS; assay: ForteBio, IgG, monovalent
Cyno PD-L2-Fc [4] = target: T3, Cyno PD-L2-Fc (cynomolgus, UniProt A0A2K5U5Z4 20-220); assay: ForteBio Octet, IgG, avid
T3 construct: also called cynomolgus PD-L2; not shown: Fc
T3 sequence: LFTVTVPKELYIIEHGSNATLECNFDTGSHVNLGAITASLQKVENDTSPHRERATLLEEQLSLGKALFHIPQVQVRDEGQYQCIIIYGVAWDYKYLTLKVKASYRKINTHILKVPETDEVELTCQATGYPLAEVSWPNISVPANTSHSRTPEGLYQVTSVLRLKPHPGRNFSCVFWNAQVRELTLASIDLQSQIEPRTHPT

Cyno PD-L1-Fc [5] = target: T4, Cyno PD-L1-Fc (cynomolgus, UniProt G7PSE7 19-238); assay: ForteBio Octet, IgG, avid
T4 construct: also called cynomolgus PD-L1

Mouse PD-L1-Fc [6] = target: T5, Mouse PD-L1-Fc (mouse, UniProt Q9EP73 19-239, limits assumed); assay: ForteBio Octet, IgG, avid
T5 construct: also called murine PD-L1; not shown: Fc

Mouse PD-L2-Fc [7] = target: T6, Mouse PD-L2-Fc (mouse, UniProt Q9WUL5 20-219, limits assumed); assay: ForteBio Octet, IgG, avid
T6 construct: also called murine PD-L2; not shown: Fc
T6 sequence (looked up): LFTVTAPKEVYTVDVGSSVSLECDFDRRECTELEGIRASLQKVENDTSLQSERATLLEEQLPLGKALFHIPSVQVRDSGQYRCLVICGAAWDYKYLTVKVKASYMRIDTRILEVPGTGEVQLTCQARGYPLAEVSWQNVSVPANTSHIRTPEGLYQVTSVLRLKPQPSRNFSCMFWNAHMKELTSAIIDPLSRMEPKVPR

Human PD-L1-HIS [8] = target: T2, Human PD-L1-HIS; assay: ForteBio Octet, IgG; column head says Avid
Cyno PD-L2-Fc [9] = target: T3, Cyno PD-L2-Fc; assay: ForteBio, IgG, avid
Cyno PD-L1-Fc [10] = target: T4, Cyno PD-L1-Fc; assay: ForteBio, IgG, avid
Mouse PD-L1-Fc [11] = target: T5, Mouse PD-L1-Fc; assay: ForteBio, IgG, avid
Mouse PD-L2-Fc [12] = target: T6, Mouse PD-L2-Fc; assay: ForteBio, IgG, avid

T2 sequence (Q9NZQ7 19-238 limits assumed): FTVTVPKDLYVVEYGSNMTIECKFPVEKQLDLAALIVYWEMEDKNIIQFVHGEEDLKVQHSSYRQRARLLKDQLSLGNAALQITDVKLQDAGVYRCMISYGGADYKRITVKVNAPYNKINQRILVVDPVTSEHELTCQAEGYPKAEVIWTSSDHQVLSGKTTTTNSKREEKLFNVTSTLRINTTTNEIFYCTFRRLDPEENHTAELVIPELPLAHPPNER
T5 sequence (Q9EP73 19-239 limits assumed): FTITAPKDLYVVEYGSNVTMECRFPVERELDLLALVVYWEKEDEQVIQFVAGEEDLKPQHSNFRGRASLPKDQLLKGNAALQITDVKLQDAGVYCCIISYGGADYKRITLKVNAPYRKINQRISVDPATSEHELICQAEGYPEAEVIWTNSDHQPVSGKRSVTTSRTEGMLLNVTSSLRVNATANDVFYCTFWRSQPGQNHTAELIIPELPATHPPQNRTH
T4 sequence (G7PSE7 entry or part of it limits assumed): as the sequence (Q9NZQ7 19-238 limits assumed) above, with A33T, A34S, S62N, R68Q, Q82R, F173L, T185A, T192I, H215L counted along it

B1: BiPDL4-34 (antibody, V domains shown)
VH: QVQLVESGGGVIQPGRSLRLSCAASGFTFSAYLMHWVRQAPGKGLEWVAAIGYDGMNKYYADSVKGRFTISRDNSKNTLYLQMNSLRAEDTAVYYCARAGIEYSYAYTDYWGQGTLVTVSS
VL: EIVLTQSPGTLSLSPGERATLSCRASQFVYSSDLAWYQQKPGQAPRLLIYGASARAAGIPDRFSGSGSGTDFTLTISRLEPEDFAVYYCMQFGWWPPRTFGGGTKVEIK
notes: Fourth generation, IgG
Kd (Human PD-L2-HIS [1]): 0.932 nM
Kd (Human PD-L1-HIS [2]): 6.85 nM
Kd (Human PD-L2-HIS [3]): 0.932 nM
Kd (Cyno PD-L2-Fc [4]): 0.739 nM
Kd (Cyno PD-L1-Fc [5]): 0.408 nM
Kd (Mouse PD-L1-Fc [6]): 0.544 nM
Kd (Mouse PD-L2-Fc [7]): 5.69 nM
Kd (Human PD-L1-HIS [8]): 2.17 nM
Kd (Cyno PD-L2-Fc [9]): 0.739 nM
Kd (Cyno PD-L1-Fc [10]): 0.408 nM
Kd (Mouse PD-L1-Fc [11]): 0.544 nM
Kd (Mouse PD-L2-Fc [12]): 5.69 nM
